Where two headings read alike, the source gives them in different places. Where no end group is shown, it is not given here. [ ]: non-standard residue; d: D form. code ∗ = not defined here
Tests used:
[1] = type: physicochemical; conditions: for 0 day Purity (%) / 5 days Purity (%) / 5 days Relative Purity (%) / 10 days Purity (%) / 10 days Relative Purity (%) / 15 days Purity (%) / 15 days Relative Purity (%): pH 4.5, 40° C.; for 5 days Relative Purity (%) / 10 days Relative Purity (%) / 15 days Relative Purity (%): compared with the corresponding sample at 0 day
Description: (§1) 1 mg of each sample was dissolved in a buffer solution, which contains 150 mM sodium chloride and 20 mM phosphate, from which a solution of concentration of 4 mg/ml was prepared and its pH is 8.0. The testing sample solutions were placed in a thermostat of 40° C. LC-MS was used to determine the purity of polypeptide. Correlation between the reduction ratio of the main peak area and time reflects the chemical stability of the polypeptide. Expressed as a percentage, purity is the percentage corresponding to the target peak in the total of all peaks including impurities. Using LC, the main peak was separated from any impurities, and the relative percentages of main peak and impurities at times 0 (before incubation at 40° C. at pH 4.5-8) and after 5, 10 and 15 days were determined. MS was used to identify the main peak as the target molecule. The main peak area plus the peak areas of any impurities gives a total equal to 100%, with relative purity calculated at a certain time (5, 10 or 15 days) against the purity at time 0 compared to the purity before incubation at 40° C. at pH 4.5-8.
(§2) The following method was used to determine the chemical stability of various modified exendins having a sequence identity of at least 90% to SEQ ID no. 17 under acidic/basic conditions. […] Purity was determined by LC-MS as percentage of the target peak in the total of all peaks including impurities as described in example 3.
4 mg Exendin-4 derivative polypeptide (described in Table 2 below) was dissolved in 20 mM sodium buffer (pH 4.5) so as to prepare a solution at concentration of 4 mg/ml. The testing sample solutions were placed in a thermostat setting at 40° C. LC-MS was used to determine the purity of polypeptide. The chemical stability of the polypeptide was expressed as the correlation between the reduction ratio of the main peak area and time and determined as described above.

[2] = Stability of Exendin-4 derivatives under basic conditions (PBS pH 7.4, 40° C., LC-MS purity); type: physicochemical; conditions: for 5 days Relative Purity (%) / 10 days Relative Purity (%): compared with the corresponding sample at 0 day
Description: as §1, §2
4 mg Exendin-4 derivative polypeptide (described in Table 3 above) was taken and dissolved in PBS buffer (KH2PO4 0.27 g/L, Na2HPO4 1.42 g/L, NaCl 8 g/L and KCl 0.2 g/L, pH 7.4) so as to prepare a solution at concentration of 4 mg/ml. The testing sample solutions were placed in a thermostat setting at 40° C. LC-MS was used to determine the purity of polypeptide. The chemical stability of the polypeptide was expressed as the correlation between the reduction ratio of the main peak area and time.

[3] = Test for the stability of the polypeptide (LC-MS purity, pH 8.0, 40° C.); type: physicochemical; conditions: for Purity (%) 0 day: 4 mg/ml
Description: The following method was used to determine the chemical stability of some polypeptides in the present invention.
as §1

[4] = tested on: normal mice; assay: Oral glucose tolerance test in normal mice after subcutaneous injection; type: in vivo; conditions: unit not given
Source text: Polypeptide of SEQ ID NO: 25 was modified with polyethylene glycol of molecular weight of about 40,000 (sample 4 as described in Examples 3 and 4 above).

[5] = first day after s.c. injection, dosage (20)
[6] = first day after s.c. injection, dosage (80)
[7] = third day after s.c. injection, dosage (20)
[8] = third day after s.c. injection, dosage (80)

In the case of “HGEGTFTSDLSKQMEEEAVRLFIEWLKQGGPSSGAPPPK* [Sample 5]”, the “0 day Purity (%)” value [1] is reported as 98.3%, the “5 days Purity (%)” value [1] is reported as 96.3% and the “5 days Relative Purity (%)” value [1] is reported as 97.97%. For the same substance, the “10 days Purity (%)” value [1] was 95.1%, the “10 days Relative Purity (%)” value [1] was 96.74% and the “15 days Purity (%)” value [1] was 94.1%. For the same substance, the “15 days Relative Purity (%)” value [1] was 95.73%, the “0 day Purity (%)” value [2] was 98.3% and the “5 days Purity (%)” value [2] was 95.7%. For the same substance, the “5 days Relative Purity (%)” value [2] was 97.36%, the “10 days Purity (%)” value [2] was 94.2% and the “10 days Relative Purity (%)” value [2] was 95.83%.
With “HdAEGTFTTSDL SKQNleEEEAVR LFIEWLKQGG PSSGAPPPC(AM) [Sample 9-2]” the “0 day Purity (%)” value [1] was 99.0%, the “5 days Purity (%)” value [1] was 98.9% and the “5 days Relative Purity (%)” value [1] was 99.90%. For the same substance, the “10 days Purity (%)” value [1] was 98.8%, the “10 days Relative Purity (%)” value [1] was 99.80% and the “15 days Purity (%)” value [1] was 98.8%. For the same substance, the “15 days Relative Purity (%)” value [1] was 99.80%, the “0 day Purity (%)” value [2] was 99.0% and the “5 days Purity (%)” value [2] was 98.8%. The “5 days Relative Purity (%)” value [2] was 99.80%, the “10 days Purity (%)” value [2] was 98.7% and the “10 days Relative Purity (%)” value [2] was 99.70%.
In the case of “HdAEGTFTSDL SKQMEEEAVR LFIEWLKNGG PSSGAPPPC-NH2 [Sample 2-1]”, the “stability of the polypeptide (conclusion in words)” value [3] is reported as “not very stable”, the “Purity (%) 0 day” value [3] is reported as 98% and the “Purity (%) 5th day” value [3] is reported as 93.1%. The “Purity (%) 10th day” value [3] was 90.4%, the “Purity (%) 15th day” value [3] was 88.2% and the “0 day Purity (%)” value [1] was 98.0%. For the same substance, the “5 days Purity (%)” value [1] was 93.8%, the “5 days Relative Purity (%)” value [1] was 95.71% and the “10 days Purity (%)” value [1] was 89.6%. For the same substance, the “10 days Relative Purity (%)” value [1] was 91.43%, the “15 days Purity (%)” value [1] was 86.7% and the “15 days Relative Purity (%)” value [1] was 88.47%. The main impurity ([1]; stability test, cysteine at C-terminal end) was “dimers formed by oxidization of the mercapto-groups”.
For “HdAEGTFTTSDL SKQNleEEEAVR LFIEWLKQGG PSSGAPPPC-PEG40K [Sample 13]”, the “stability compared with samples 2-1 and 9-1” value [1] was “even higher stability”, the “0 day Purity (%)” value [1] was 99.8% and the “5 days Purity (%)” value [1] was 99.6%. For the same substance, the “5 days Relative Purity (%)” value [1] was 99.80%, the “10 days Purity (%)” value [1] was 99.7% and the “10 days Relative Purity (%)” value [1] was 99.90%. For the same substance, the “15 days Purity (%)” value [1] was 99.5%, the “15 days Relative Purity (%)” value [1] was 99.70% and the “0 day Purity (%)” value [2] was 99.8%. The “5 days Purity (%)” value [2] was 99.3%, the “5 days Relative Purity (%)” value [2] was 99.50% and the “10 days Purity (%)” value [2] was 98.9%. For the same substance, the “10 days Relative Purity (%)” value [2] was 99.10%.
In the case of “HdAEGTFTSDL SKQMEEEAVR LFIEWLKNGG PSSGAPPPC-PEG40K [Sample 4]”, the “stability of the polypeptide (conclusion in words)” value [3] is reported as “very stable”, the “Purity (%) 0 day” value [3] is reported as 99.7% and the “Purity (%) 5th day” value [3] is reported as 99.4%. For the same substance, the “Purity (%) 10th day” value [3] was 99.0%, the “Purity (%) 15th day” value [3] was 99.3% and the “stability compared with samples 2-1 and 9-1” value [1] was “even higher stability”. For the same substance, the “0 day Purity (%)” value [1] was 99.7%, the “5 days Purity (%)” value [1] was 99.4% and the “5 days Relative Purity (%)” value [1] was 99.70%. For the same substance, the “10 days Purity (%)” value [1] was 99.3%, the “10 days Relative Purity (%)” value [1] was 99.60% and the “15 days Purity (%)” value [1] was 99.0%. For the same substance, the “15 days Relative Purity (%)” value [1] was 99.30%, the “0 day Purity (%)” value [2] was 99.7% and the “5 days Purity (%)” value [2] was 99.0%. For the same substance, the “5 days Relative Purity (%)” value [2] was 99.30%, the “10 days Purity (%)” value [2] was 98.2% and the “10 days Relative Purity (%)” value [2] was 98.50%. For the same substance, the “AUC (area under the curve of the blood glucose level)” value (“AUC” below) [4, 5] was 176.4 ± 22.0 mg·h/dL, the “Blood Glucose level 0 min” value [4, 5] was 116.6 ± 10.8 mg/dL and the “Blood Glucose level 30 min” value [4, 5] was 95.7 ± 9.9 mg/dL. For the same substance, the “Blood Glucose level 60 min” value [4, 5] was 88.9 ± 28.6 mg/dL, the “Blood Glucose level 120 min” value [4, 5] was 65.4 ± 5.1 mg/dL and the “AUC” value [4, 6] was 166.6 ± 16.7 mg·h/dL. For the same substance, the “Blood Glucose level 0 min” value [4, 6] was 122.2 ± 9.1 mg/dL, the “Blood Glucose level 30 min” value [4, 6] was 92.1 ± 12.4 mg/dL and the “Blood Glucose level 60 min” value [4, 6] was 76.7 ± 8.7 mg/dL. For the same substance, the “Blood Glucose level 120 min” value [4, 6] was 64.9 ± 7.5 mg/dL, the “AUC” value [4, 7] was 253.6 ± 24.4 mg·h/dL and the “Blood Glucose level 0 min” value [4, 7] was 96.2 ± 8.6 mg/dL. The “Blood Glucose level 30 min” value [4, 7] was 172.8 ± 33.2 mg/dL, the “Blood Glucose level 60 min” value [4, 7] was 132.1 ± 12.4 mg/dL and the “Blood Glucose level 120 min” value [4, 7] was 88.3 ± 7.8 mg/dL. For the same substance, the “AUC” value [4, 8] was 217.0 ± 21.9 mg·h/dL, the “Blood Glucose level 0 min” value [4, 8] was 89.5 ± 9.3 mg/dL and the “Blood Glucose level 30 min” value [4, 8] was 149.3 ± 32.4 mg/dL. For the same substance, the “Blood Glucose level 60 min” value [4, 8] was 108.6 ± 8.8 mg/dL and the “Blood Glucose level 120 min” value [4, 8] was 77.1 ± 8.4 mg/dL.
For “HdAEGTFTSDL SKQNleEEEAVR LFIEWLKQGG PSSGAPPPS-NH2 [Sample 3]”, the “Purity (%) 0 day” value [3] was 98.9%, the “Purity (%) 5th day” value [3] was 98.8% and the “Purity (%) 10th day” value [3] was 98.8%. The “Purity (%) 15th day” value [3] was 98.8%, the “0 day Purity (%)” value [1] was 98.9% and the “5 days Purity (%)” value [1] was 98.7%. For the same substance, the “5 days Relative Purity (%)” value [1] was 99.80%, the “10 days Purity (%)” value [1] was 98.7% and the “10 days Relative Purity (%)” value [1] was 99.80%. The “15 days Purity (%)” value [1] was 98.6%, the “15 days Relative Purity (%)” value [1] was 99.70% and the “0 day Purity (%)” value [2] was 98.9%. The “5 days Purity (%)” value [2] was 98.6%, the “5 days Relative Purity (%)” value [2] was 99.70% and the “10 days Purity (%)” value [2] was 98.5%. For the same substance, the “10 days Relative Purity (%)” value [2] was 99.60%.
In the case of “HdAEGTFTSDL SKQMEEEAVR LFIEWLVKGG PSSGAPPPK* (H[dA]EGTFTSDLSKQMEEEAVRLFIEWLVKGGPSSGAPPPK(code ∗); reading uncertain; also: C-terminal modification (*)) [Sample 11]”, the “0 day Purity (%)” value [1] is reported as 98.3%, the “5 days Purity (%)” value [1] is reported as 96.7% and the “5 days Relative Purity (%)” value [1] is reported as 98.37%. The “10 days Purity (%)” value [1] was 95.9%, the “10 days Relative Purity (%)” value [1] was 97.56% and the “15 days Purity (%)” value [1] was 94.8%. The “15 days Relative Purity (%)” value [1] was 96.44%, the “0 day Purity (%)” value [2] was 98.3% and the “5 days Purity (%)” value [2] was 97.1%. The “5 days Relative Purity (%)” value [2] was 98.78%, the “10 days Purity (%)” value [2] was 96.4% and the “10 days Relative Purity (%)” value [2] was 98.07%.

From US8716221B2, “Modified exendins and uses thereof” (priority 2005, dated 2014)
